Laboratory results from patent US20260209365A1, “ANTI-COMMON GAMMA CHAIN PROTEINS AND COMPOSITIONS OF MATTER” (SINOMAB BIOSCIENCE LIMITED, priority 2023, published 2026).
Substitutions are numbered along the chain they refer to.

What was measured:
[1] = target: T1, common marmoset γc protein (extracellular domain), purified (common marmoset (Callithrix jacchus), UniProt P31785 26-262 (human entry)); assay: ELISA, strip coated with 1 µg/ml common marmoset γc, antibody in 5-fold dilutions from 10 to 0.00064 µg/ml, OD 450 nm
T1 construct: also called common marmoset (Callithrix jacchus) γc
T1 chain: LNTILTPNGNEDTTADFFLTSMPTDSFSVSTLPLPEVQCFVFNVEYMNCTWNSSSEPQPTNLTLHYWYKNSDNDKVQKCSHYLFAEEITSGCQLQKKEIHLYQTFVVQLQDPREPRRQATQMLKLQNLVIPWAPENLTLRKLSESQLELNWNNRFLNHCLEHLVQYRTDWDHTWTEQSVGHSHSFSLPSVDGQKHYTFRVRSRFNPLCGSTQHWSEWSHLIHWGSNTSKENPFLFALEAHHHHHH
Description: (§1) The ELISA strip was coated with 1 μg/ml γc protein from each species. Antibody was diluted 5-fold each from 10 μg/ml to 0.00064 μg/ml.
(§2) Humanized antibodies with back-mutation (hSM-05A and hSM-05E) were tested in the following assays. Binding affinities were investigated in the ELISA assays.

[2] = target: T2, rabbit γc protein (extracellular domain), purified (rabbit (Oryctolagus cuniculus)); assay: ELISA, strip coated with 1 µg/ml rabbit γc, antibody in 5-fold dilutions from 10 to 0.00064 µg/ml, OD 450 nm
T2 construct: also called rabbit (Oryctolagus cuniculus) γc
T2 chain: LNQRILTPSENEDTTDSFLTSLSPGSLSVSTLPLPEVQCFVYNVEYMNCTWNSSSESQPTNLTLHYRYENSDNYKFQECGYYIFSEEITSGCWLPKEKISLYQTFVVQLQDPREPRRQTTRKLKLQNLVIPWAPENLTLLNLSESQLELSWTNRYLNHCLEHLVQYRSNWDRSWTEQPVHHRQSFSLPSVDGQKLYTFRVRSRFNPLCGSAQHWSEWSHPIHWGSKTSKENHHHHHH
Description: as §1, §2

[3] = target: T3, human γc protein (extracellular domain), purified (human (Homo sapiens), UniProt P31785 23-262); assay: ELISA, strip coated with 1 µg/ml human γc, antibody in 5-fold dilutions from 10 to 0.00064 µg/ml, OD 450 nm
T3 construct: Either purchased from Sino Biological or in-house generated; also called human common gamma chain; CD132; not shown: which was used i
T3 sequence: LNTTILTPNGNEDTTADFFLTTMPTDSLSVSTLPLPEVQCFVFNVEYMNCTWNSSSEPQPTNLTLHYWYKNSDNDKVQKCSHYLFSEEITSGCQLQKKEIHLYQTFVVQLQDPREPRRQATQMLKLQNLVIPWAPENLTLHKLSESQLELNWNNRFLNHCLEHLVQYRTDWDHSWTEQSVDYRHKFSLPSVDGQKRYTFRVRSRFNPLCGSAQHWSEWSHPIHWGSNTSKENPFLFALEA
Description: as §1

[4] = target: T4, rhesus γc protein (extracellular domain), purified (rhesus (Macaca mulatta), UniProt P31785 23-254 (human entry)); assay: ELISA, strip coated with 1 µg/ml rhesus γc, antibody in 5-fold dilutions from 10 to 0.00064 µg/ml, OD 450 nm
T4 construct: also called rhesus (Macaca mulatta) γc
T4 chain: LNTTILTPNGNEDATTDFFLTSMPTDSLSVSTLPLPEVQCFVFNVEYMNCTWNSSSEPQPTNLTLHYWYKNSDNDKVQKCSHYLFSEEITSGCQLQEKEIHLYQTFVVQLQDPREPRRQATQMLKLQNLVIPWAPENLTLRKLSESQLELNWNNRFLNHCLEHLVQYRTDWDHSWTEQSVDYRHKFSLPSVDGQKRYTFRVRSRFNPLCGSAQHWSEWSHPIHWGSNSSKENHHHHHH
Description: as §1

[5] = target: T5, chimpanzee γc protein (extracellular domain), purified (chimpanzee (Pan troglodytes), UniProt P31785 23-262); assay: ELISA, strip coated with 1 µg/ml chimpanzee γc, antibody in 5-fold dilutions from 10 to 0.00064 µg/ml, OD 450 nm
T5 construct: also called chimpanzee (Pan troglodytes) γc
T5 sequence: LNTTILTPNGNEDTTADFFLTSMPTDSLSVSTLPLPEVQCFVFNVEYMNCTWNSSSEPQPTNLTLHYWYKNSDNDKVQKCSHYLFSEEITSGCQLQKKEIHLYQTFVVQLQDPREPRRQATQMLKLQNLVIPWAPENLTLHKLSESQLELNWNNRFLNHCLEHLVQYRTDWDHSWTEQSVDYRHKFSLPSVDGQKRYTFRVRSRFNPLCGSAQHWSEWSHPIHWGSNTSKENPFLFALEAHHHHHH
Description: as §1

[6] = target: T6, Rhesus (Macaca mulatta, UniProt A0A5F8A3G1); assay: flow cytometry, FITC-hSM-05A on HEK-293 cells transfected with full-length rhesus γc, N=3
T6 construct: full length, on the cell surface; the purified extracellular domain is 1.m23; also called rhesus γc protein, full length, on HEK-293 cells
T6 sequence (receptor chain): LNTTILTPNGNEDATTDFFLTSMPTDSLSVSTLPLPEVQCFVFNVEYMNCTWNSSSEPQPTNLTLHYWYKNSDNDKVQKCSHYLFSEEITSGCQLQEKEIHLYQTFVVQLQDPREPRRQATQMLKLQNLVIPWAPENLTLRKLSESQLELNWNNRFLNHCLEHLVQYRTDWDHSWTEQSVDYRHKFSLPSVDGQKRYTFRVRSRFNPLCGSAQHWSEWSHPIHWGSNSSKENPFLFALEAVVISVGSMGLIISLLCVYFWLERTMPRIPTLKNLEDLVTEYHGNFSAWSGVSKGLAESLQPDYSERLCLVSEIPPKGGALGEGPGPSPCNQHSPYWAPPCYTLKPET
Description: In brief, hSM-05A was fluorescently labelled with FITC. HEK-293 cells were transfected with the plasmids expressing the full-length γc proteins from different species for 2 days before the incubation with the fluorescent antibodies for flow cytometry analyses. […] All antibodies were administrated at 33 nM (5 μg/ml). C=non-transfected control; Hu: Humans; Rh: Rhesus monkey; Cy: Cynomolgus; Ma: Common marmoset. N=3 for all groups.
The binding specificities of humanized anti-γc antibodies to native γc proteins were further evaluated by […] binding assay. In brief, human HEK-293 cells were transfected with plasmid expressing full length γc protein from human, rhesus, cynomolgus or common marmoset. Two days later, transfected cells or non-transfected controls were incubated with FITC-conjugated hSM-05A on ice for an hour before analysis by flow cytometry.

[7] = target: T7, cynomolgus γc protein (extracellular domain), purified (cynomolgus (Macaca fascicularis), UniProt P31785 23-254 (human entry)); assay: ELISA, strip coated with 1 µg/ml cynomolgus γc, antibody in 5-fold dilutions from 10 to 0.00064 µg/ml, OD 450 nm; curve near baseline up to about 0.08 µg/ml, rises to about 1.35 at 10 µg/ml, no upper plateau
T7 construct: Purchased from Sino Biological or in-house; also called cynomolgus (Macaca fascicularis) γc
T7 chain: T4 chain with E97K
Description: as §1

EC50 [1]: 0.04 µg/mL
binding result [2]: no binding (tested: 10 µg/ml)
EC50 [3]: 0.02 µg/mL
binding result [4]: no binding (tested: 10 µg/ml)
EC50 [5]: 0.06 µg/mL
binding result [6]: no binding (tested: 5 µg/ml (33 nM))
EC50 [7]: 9.56 µg/mL
B1: hSM-05A, humanized anti-γc antibody with back-mutation (antibody, V domains shown)
VH: QVQLVQSGAEVLKPGASVKVSCKASGYTFTEYTMHWVKQARGQRLEWIGGIDPYNGGATYNQRFKGKATLTTDTSTSTAYMELRNLRSDDTAVYYCARRRLYYGNALDYWGQGTLVTVSS
VL: DIVMTQSPLSLPVTPGEQASISCRSSQSLVHSNGNTYLHWYLQKPGQSPQLLIYKVSSRFSGVPDRFSGSGSGTDFTLKISRVEAEDVGVYFCSQTTHVPFTFGSGTKLEIKR
notes: Full-length humanized antibody; also called humanized (h) SM-05A; hbSM-05A
